Test [1] deals with T1, mouse TREM2 on Expi 293 cells (mouse, UniProt Q99NH8 19-227).
T1 construct: also called Expi-mTREM2; mTREM2
T1 sequence: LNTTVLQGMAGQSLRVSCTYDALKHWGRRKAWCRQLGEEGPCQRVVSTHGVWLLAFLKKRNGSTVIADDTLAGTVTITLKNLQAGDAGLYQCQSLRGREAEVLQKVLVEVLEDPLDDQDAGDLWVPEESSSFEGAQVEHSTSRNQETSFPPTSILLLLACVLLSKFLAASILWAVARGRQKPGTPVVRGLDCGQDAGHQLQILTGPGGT
In words: flow cytometry on Expi 293 cells over-expressing mouse TREM2; Alexa Fluor 647 anti-Fc secondary. As for the experimental part:
(§1) 100,000 to 500,000 Expi 293 parental cells or Expi 293 cells over-expressing human or mouse TREM2 were plated in 96 well plates and dead cells were stained with Zombie Near Infrared (Biolegend). Titrations of indicated unconjugated antibodies were incubated with these cells within a range of 0 ug/ml to 10 ug/ml in a 1:3 dilution range across 8-10 points. Dependent on their isotype (hIgG1 or mIgG2a), these primary unconjugated antibodies were detected with Alexa Fluor 647 conjugated anti-human Fc or anti-mouse Fc secondary antibodies (Jackson Immunoresearch). Alexa Fluor 647 signal was measured by flow cytometry (BD Fortessa X-14, BD Biosciences). EC50 values were calculated by curve fitting signal generated from antibodies binding to over-expressing cells over background fluorescence generated from HEK293 parental cells in Graphpad Prism (Graphpad Software).
Background: A flow cytometer gives signals particle by particle.

The target of test [2] is T2, human TREM2 on Expi 293 cells (human, UniProt Q9NZC2 19-230).
T2 construct: also called Expi-hTREM2; hTREM2
T2 sequence: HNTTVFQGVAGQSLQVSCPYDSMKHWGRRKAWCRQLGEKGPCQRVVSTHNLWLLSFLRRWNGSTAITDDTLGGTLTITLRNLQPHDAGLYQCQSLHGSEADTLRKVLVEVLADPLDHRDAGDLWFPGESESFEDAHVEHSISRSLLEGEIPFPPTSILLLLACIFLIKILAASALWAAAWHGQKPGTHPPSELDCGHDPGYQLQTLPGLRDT
Put plainly: flow cytometry on Expi 293 cells over-expressing human TREM2; Alexa Fluor 647 anti-Fc secondary. As for the experimental part: as §1

The target of test [3] is T3, human TREM2 His (Sino Biological) (human, UniProt Q9NZC2 19-174).
T3 construct: Bought reagent; the soluble reagent is probably only the extracellular part; not shown: His tag
T3 sequence: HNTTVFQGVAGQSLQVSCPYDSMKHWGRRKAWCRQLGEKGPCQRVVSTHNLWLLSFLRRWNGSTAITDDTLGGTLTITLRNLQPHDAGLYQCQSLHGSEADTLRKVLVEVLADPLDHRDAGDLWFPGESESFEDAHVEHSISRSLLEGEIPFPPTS
In words: SPR, Biacore T200; TREM2-His captured on CM5 chip by anti-His, antibody injected; 1:1 Langmuir fit. As for the experimental part: (§2) Binding kinetics were determined by surface plasmon resonance using a Biacore T200 (GE Healthcare, UK) with human TREM2 His (Sino Biological, Beijing, P.R.China) or […] captured on Series S CM5 chips through anti-His capture or TREM2 human IgG1 Fc fusion protein (in-house SEC purified to >95% purity) directly immobilized to chips by amine coupling. Serial dilutions of indicated antibodies were injected at 30 ul/minute for 2 minutes. PBS or system buffer was then injected at 30 ul/minute for 400 seconds to observe dissociation. Binding responses were corrected by subtraction of responses on a blank flow cell. For kinetic analysis, a 1:1 Langmuir model of global fittings of kₒₙ and koff values, was used. The Kd values were determined from the ratios of kₒₙ and koff.
On the technique in general: SPR reads the build-up and loss of mass on a sensor chip optically.

Test [4] concerns the target T4, TREM2 human IgG1 Fc fusion protein (human, UniProt Q9NZC2 19-174, limits assumed).
T4 construct: In-house, SEC purified to >95% purity; also called human TREM2-Fc; not shown: human IgG1 Fc
T4 sequence: T3 sequence
In words: SPR, Biacore T200; TREM2-Fc amine-coupled to CM5 chip, antibody injected; 1:1 Langmuir fit. The procedure: as §2

Changes are numbered by the printed parent chain.

B1: PI37012 (antibody, human IgG1, kappa, V domains shown)
VH: EVQLLESGGGLVQPGGSLRLSCAASGFTFSNYYMAWVRQAPGKGLEWVSSLTNSGGSTYYADSVKGRFTISRDNSKNTLYLQMNSLRAEDTAVYYCTREWAGSGYFDYWGQGTLVTVSS
VL: DIQMTQSPSSLSASVGDRVTITCKASQNVGNNLAWYQQKPGKAPKLLIYYTSNRFTGVPSRFSGSGSGTDFTLTISSLQPEDFATYYCQRIYNSPWTFGQGTKLEIKR
notes: Humanized anti-TREM2 antibody, human IgG1, produced in HEK293; also called 37012 antibody; PI37012 anti-TREM2 mAb
B1: the EC50 in test [1] stood at 0.5 nM.

B2: PI37014 (antibody, human IgG1, kappa, V domains shown)
VH: B1 VH with S49A, I70L
VL: B1 VL
notes: Humanized anti-TREM2 antibody, human IgG1
Consider B2, for which the EC50 in test [2] came out at 1.4 nM. Also, in test [3], the affinity, expressed as Kd, was 4.74 nM; the koff was determined as 0.00243 s⁻¹; the kon worked out at 511000 M⁻¹ s⁻¹. In addition, in test [4], binding was put at a Kd of 1.55 nM, the koff turned out to be 0.000732 s⁻¹ and the kon came to 471000 M⁻¹ s⁻¹.

B3: PI37017 (antibody, human IgG1, kappa, V domains shown)
VH: B1 VH with T97A, R98K
VL: B1 VL
notes: Parent humanized clone, human IgG1; also called 37017 antibody
The molecule B3 registered an EC50 in test [2] of 23.3 nM. Also, the EC50 in test [1] was found to be 3.6 nM. Also, in test [4], the Kd came out at 18 nM, the koff worked out at 0.00614 s⁻¹ and the kon turned out to be 340000 M⁻¹ s⁻¹.

B4: PI37013 (antibody, human IgG1, kappa, V domains shown)
VH: B1 VH
VL: B1 VL with I21M, I48L, L78V, I106L
notes: as for B2
Consider B4, for which the EC50 in test [2] is 1.4 nM. For the same molecule, the response in test [1] was half-maximal at 1.2 nM (EC50). Besides, in test [3], the Kd amounted to 4.82 nM, the koff was 0.00549 s⁻¹ and the kon was 1.14e+06 M⁻¹ s⁻¹. In test [4], the Kd turned out to be 1.72 nM, the koff is 0.000888 s⁻¹ and the kon was 517000 M⁻¹ s⁻¹.

A word on the EC50: it is the concentration at which the effect is half-maximal. For orientation: Kd means the concentration at which binding is half-saturated. A high value points to lower affinity. The koff is a measure of how fast the partners let go of each other. Low values mean a long-lived complex, high ones a short-lived complex. In general, kon refers to the second-order rate constant of association.

For the origin of these results see patent US20240301059A1 (PIONYR IMMUNOTHERAPEUTICS, published 2024).
